# In patent US20080253996A1, “Use of Sdf-1 for the Treatment and/or Prevention of Neurological Diseases” (LABORATORIES SERONO SA, priority 2005, published 2008):
# B1: IL-10: control molecule shown to inhibit cytokine release from activated microglia (protein, UniProt P18893 19-178, looked up)
# Interleukin-10: SRGQYSREDNNCTHFPVGQSHMLLELRTAFSQVKTFFQTKDQLDNILLTDSLMQDFKGYLGCQALSEMIQFYLVEVMPQAEKHGPEIKEHLNSLGEKLKTLRMRLRRCHRFLPCENKSKAVEQVKSDFNKLQDQGVYKAMNEFDIFINCIEAYMMIKMKS
# B2: SDF-1α variant: Triple mutant of SDF-1α (Lys24Ala, His25Ala, Lys27Ala), SEQ ID NO: 4, reduced GAG binding activity (protein)
# chain: KPVSLSYRCPCRFFESHVARANVAALAILNTPNCALQIVARLKNNNRQVCIDPKLKWIQEYLEKALNK
# modifications: Human
# Columns and labels:
# sciatic nerve crush mice = test: Neuropathy induced by sciatic nerve crush, electrophysiological recording (CMAP); assay type: in vivo, mouse
# Experimental: […] 8 week-old females C57bl/6 RJ mice (Elevage Janvier, Le Genest-St-Isle, France) were used. They were divided into 6 groups (n=6): • (a) nerve crush/Vehicle (Saline/0.02% BSA); • (b) nerve crush/SDF-1α (3 μg/kg); • (c) nerve crush/SDF-1α (10 μg/kg); • (d) nerve crush/SDF-1α (30 μg/kg); • (e) nerve crush/SDF-1α (100 μg/kg); • (f) nerve crush/IL-6 (30 μg/kg).
# The animals were anaesthetized by inhalation of 3% Isoflurane (Baxter). The right sciatic nerve was surgically exposed at mid thigh level and crushed at 5 mm proximal to the trifurcation of the sciatic nerve. The nerve was crushed twice for 30s with a haemostatic forceps (width 1.5 mm; Koenig; Strasbourg; France) with a 90-degree rotation between each crush.
# Electromyographical (EMG) testing was performed once before the surgery day and each week during 3 weeks following the operation.
# The day of nerve crush surgery was considered as dpl 0 (dpl=day post lesion). No test was performed during the 4 days following the crush.
# From the day of nerve injury to the end of the study, SDF-1α, IL-6 or Vehicle were administered daily by subcutaneous injections (s.c.) route, 5 days per week.
# Electrophysiological recordings were performed using a Neuromatic 2000M electromyograph (EMG) (Dantec, Les Ulis, France). Mice were anaesthetized by inhalation of 3% Isofluran® (Baxter). The normal body temperature was maintained using a heated operating table (Minerve, Esternay, France).
# Compound muscle action potential (CMAP) was measured in the gastrocnemius muscle after a single 0.2 ms stimulation of the sciatic nerve at a supramaximal intensity (12.8 mA). The amplitude (mV) and the latency (ms) of the action potential were measured on the operated leg. The measures was also registered on the contralateral (uncrushed) leg of Vehicle treated animals (Baseline). The amplitude is indicative of the number of active motor units, while the distal latency indirectly reflects motor nerve conduction and neuromuscular transmission velocities, which depends in part on the degree of myelination.
# Global analysis of the data was performed using one-way ANOVA. Dunnett's test was used further, and data were compared to the “vehicle” control. The level of significance was set at a: p<0.001; b or **: p<0.01; c or *: p<0.05; d: p<0.1. The results were expressed as mean ±standard error of the mean (s.e.m.).
# The sciatic nerve crush model described in Example 4 above was carried out to test SDF-1α variant as defined in SEQ ID NO: 4 and the mice were divided into the following 2 groups (n=6):
# The SDF-1α variant used in this example and encoded by SEQ ID NO: 4 was expressed with an additional N terminal Methionine. The CMAP duration (time needed for a depolarization and a repolarization session) was also recorded.
# The sciatic nerve crush model described in Example 4 above was carried out to test Met-SDF-1α (as defined in SEQ ID NO: 7) and the mice were divided into the following 2 groups (n=6):
# (b) nerve crush/Met-SDF-1α variant at 100, 30, and 10 μg/kg s.c.
# [1] = test system: primary mixed cortical cultures stimulated with LPS; test: Cytokine release (TNF-α, IL-6) from LPS stimulated primary mixed cortical cultures; assay type: cell-based, mouse; details: for levels of IL-6 secretion / levels of TNF-α secretion: pre-incubation 3 h (SDF proteins 0.001, 0.1, 10 ng/ml; IL-10 10 ng/ml; dexamethasone 25 pM), then LPS 5 ng/ml 48 h, ELISA, compared to untreated cells
# Experimental: Culturing of primary cells was performed as described (Lubetzki et al., 1993) using brain tissue from embryos isolated from NMRI mice at 16 days post-coitum. Cerebral hemispheres were dissected from embryo brains, dissociated via trypsin digestion and the single cell suspension was seeded at 5×10^4 cells in 50 μl myelination medium per well onto BioCoat® poly-L-lysine coated 96-well plates (356516, Becton Dickinson). The myelination medium consisted of Bottenstein-Sato medium (Bottenstein and Sato, 1979; Sadir et al., 2001), supplemented with 1% FCS, 1% penicillin-streptomycin solution (Seromed) and recombinant platelet-derived growth factor AA (PDGF-AA, R&D Systems) at 10 ng/mL.
# For testing the effects of SDF-1α and SDF-1α variant (as defined in SEQ ID NO: 4) on LPS stimulated cultures, cells were allowed to grow for two weeks. At day 14 cells were pre-incubated with increasing concentrations (0.001, 0.1 and 10 ng/ml) of the corresponding proteins into 25 μl of medium for three hours at 37° C. and 10% CO2. LPS was then supplemented to the cells at the concentration of 5 ng/ml into 25 μl of medium to obtain a final volume of 100 μl and incubated for 48 hours. Supernatants were collected at day 16 and the levels of TNF-α and IL-6 (the major cytokines released by activated microglia) were measured via specific ELISAs purchased from R&D systems (DuoSet mouse TNF-α ELISA DY410, mouse IL-6 ELISA DY406).
# Global analysis of the data was performed using one-way ANOVA. Dunnett's test was used further, and data were compared to the “untreated cells”. The level of significance was set at a: p<0.001; b or **: p<0.01; c or *: p<0.05; d: p<0.1. The results were expressed as mean ±standard error of the mean (s.e.m.).
# [2] = test system: leukocytes recruited in the peritoneal cavity; test: In vivo model of peritoneal cell recruitment; parameters: species or system mouse; details: 4 μg i.p. in Balb/C mice, 4 hours post injection
# Experimental: 8-12 week old, female Balb/C mice (Janvier, France) were injected intra peritoneally (i.p.) with 200 μl NaCl (0.9%, LPS free) or chemokine 4 μg (WT SDF-1α or SDF-1α variant according to SEQ ID NO:4 diluted in 200 μl NaCl (0.9%, LPS free). […] of WT or mutant SDF-1α, mice were sacrificed by CO2 asphyxiation, the peritoneal cavity was washed with 3×5 ml ice cold PBS and the total lavage was pooled for individual mice. Total cells collected were counted by haemocytometer (Neubauer, Germany).
Molecule,"CMAP latency vs vehicle treated mice (sciatic nerve crush mice; 100, 30, and 10 μg/kg s.c., day 7 and day 14 after crush)",levels of IL-6 secretion [1],levels of TNF-α secretion [1],"best concentration for decrease of TNF-α and IL-6 secretion ([1]; tested 0.001, 0.1 and 10 ng/ml, LPS 5 ng/ml 48 h)","CMAP duration vs vehicle treated mice (sciatic nerve crush mice; 30 μg/kg s.c., 7 dpl and 22 dpl)","CMAP amplitude (sciatic nerve crush mice; 30 μg/kg s.c., 22 dpl)","CMAP latency vs vehicle treated mice (sciatic nerve crush mice; 30 μg/kg s.c., 22 dpl)","CMAP latency vs vehicle treated mice (sciatic nerve crush mice; 30 μg/kg s.c., especially at 7 dpl)",leukocyte recruitment in the peritoneal cavity [2]
"Met-SDF-1α: Human mature isoform SDF-1α having an additional N-terminal Methionine, SEQ ID NO: 7",significantly reduced,–,–,–,–,–,–,–,–
B1,–,down regulated,down regulated,–,–,–,–,–,–
B2,–,significantly decreased,significantly decreased,10 ng/mL,reduced,significant increase,positive effect,significantly reduced,did not recruit leukocytes
